# Where two headings read alike, the source gives them in different places. Positions of bridges follow the written chain, without caps; N, C: chain ends. Non-standard residues stand in square brackets, D forms with d. Primed or numbered codes have the meaning given here. No end group written: not given here. FAM″ = 5(6)-carboxyfluorescein label; pS = N[C@@H](COP(=O)(O)O)C(=O)O; FAM = 5(6)-carboxyfluorescein; S5 = C=CCCC[C@](C)(N)C(=O)O; PEG3′ = PEG3 linker
# B1: SP4D (peptide)
# chain: KESALRKXDLYXKFDPLLRDS
# modifications: N-terminal FAM; X557 and X561 are (S)-2-(4-pentenyl)alanine joined as i,i+4 hydrocarbon staple; staple position and limits inferred from Opt SP TACC3 (KESALRK*ELL*…), exact sequence only in Fig 3A
# B2: Opt SP TACC3 (designed binder)
# chain: {FAM}-KESALRKLELLLEFDPLFRDS
# modifications: staple (positions not given here); not fully specified (residues 8, 12, bridges); also: (S)-2-(4-pentenyl)alanine at 557 and 561 not placed in the given letters
# B3: clathrin heavy chain minimal ankle region (CHC^ankle, aa 358–574) (domain or fragment)
# chain: AGAEELFARKFNALFAQGNYSEAAKVAANAPKGILRTPDTIRRFQSVPAQPGQTSPLLQYFGILLDQGQLNKYESLELCRPVLQQGRKQLLEKWLKEDKLECSEELGDLVKSVDPTLALSVYLRANVPNKVIQCFAETGQVQKIVLYAKKVGYTPDWIFLLRNVMRISPDQGQQFAQMLVQDEEPLADITQIVDVFMEYNLIQQCTAFLLDALKNNR
# B4: biotinylated Avi-tagged ankle region of clathrin (aa 358–574) (domain or fragment)
# chain: AGAEELFARKFNALFAQGNYSEAAKVAANAPKGILRTPDTIRRFQSVPAQPGQTSPLLQYFGILLDQGQLNKYESLELCRPVLQQGRKQLLEKWLKEDKLECSEELGDLVKSVDPTLALSVYLRANVPNKVIQCFAETGQVQKIVLYAKKVGYTPDWIFLLRNVMRISPDQGQQFAQMLVQDEEPLADITQIVDVFMEYNLIQQCTAFLLDALKNNR
# modifications: biotin
# B5: K507A-CHC^ankle (domain or fragment)
# chain: AGAEELFARKFNALFAQGNYSEAAKVAANAPKGILRTPDTIRRFQSVPAQPGQTSPLLQYFGILLDQGQLNKYESLELCRPVLQQGRKQLLEKWLKEDKLECSEELGDLVKSVDPTLALSVYLRANVPNKVIQCFAETGQVQKIVLYAKAVGYTPDWIFLLRNVMRISPDQGQQFAQMLVQDEEPLADITQIVDVFMEYNLIQQCTAFLLDALKNNR
# Legend:
# [1] = target: B5; experiment: FP
# [2] = target: B3; experiment: FP
# [3] = target: B4; experiment: SPR
# [4] = target: B4; experiment: SPR
# [5] = target: SP6D; experiment: FP
# [6] = target: P2; experiment: FP
# [7] = target: SP2; experiment: FP
# [8] = target: SP3D; experiment: FP
# [9] = target: P1; experiment: FP
# [10] = target: T1, SP4E (human, UniProt Q9Y6A5, two (S)-2-(4-pentenyl)alanine, stapled; FAM on the N-terminus); experiment: FP
# [11] = target: SP1; experiment: FP
# [12] = target: SP6E; experiment: FP
# [13] = target: SP3E; experiment: FP
# [14] = target: Opt P8 (pS558); experiment: FP
# [15] = target: Opt P2 (S558E); experiment: FP
# [16] = target: Opt P3 (S558D); experiment: FP
# [17] = target: Opt P7 (S558E); experiment: FP
# [18] = target: Opt P4 (S558D); experiment: FP
# [19] = target: Opt P9 (S558E); experiment: FP
# [20] = target: Opt P5 (pS558); experiment: FP
# [21] = target: Opt P1 (S558E); experiment: FP
# [22] = target: Opt P4 (pS558); experiment: FP
# [23] = target: Opt P9 (pS558); experiment: FP
# [24] = target: Opt P8 (S558E); experiment: FP
# [25] = target: Opt P5 (S558E); experiment: FP
# [26] = target: Opt P3 (S558E); experiment: FP
# [27] = target: Opt P2 (pS558); experiment: FP
# [28] = target: Opt P4 (S558E); experiment: FP
# [29] = target: Opt P3 (pS558); experiment: FP
# [30] = target: Opt P5 (S558D); experiment: FP
# [31] = target: Opt P1 (pS558); experiment: FP
# [32] = target: Opt P2 (S558D); experiment: FP
# [33] = target: Opt P7 (pS558); experiment: FP
# [34] = target: Opt P8 (S558D); experiment: FP
# [35] = target: Opt P1 (S558D); experiment: FP
# [36] = target: Opt P7 (S558D); experiment: FP
# [37] = target: Opt P9 (S558D); experiment: FP
# [38] = target: Opt P6 (S558D); experiment: FP
# [39] = target: Opt P6 (S558E); experiment: FP
# [40] = target: Opt P6 (pS558); experiment: FP
# [41] = target: T1, SP4E; experiment: SPR
# [42] = target: B5; experiment: FP; remark: listed apart in the source
# [43] = target: B3; experiment: FP
binder,measurement,setting,value
B1,Kd,[1],5.2 µM
same,Kd,[2],39 µM
{FAM″}-KESALRKQDLY[S5]KFD[S5]LLRDS-NH2 (staple 12-16) [SP5D],Kd,[1],152 µM
same,Kd,[2],361 µM
"{FAM-PEG3′}-KESALRK[S5]ELL[S5]EFDPLFRDS (designed binder, staple 8-12) [Opt PEG3 SP TACC3]",Kd,[1],0.178 µM
same,Kd,[2],0.12 µM
B2,Kd,[3],0.03 µM
same,koff,[4],0.04 s⁻¹
same,Kd,[1],0.19 µM
same,Kd,[2],0.136 µM
B3,Kd,[5],74 µM
same,Kd,[6],160 µM
same,Kd,[7],145 µM
same,Kd,[8],92 µM
same,Kd,[9],105 µM
same,Kd,[10],34 µM
same,Kd,[11],22 µM
same,Kd,[12],54 µM
same,Kd,[13],78 µM
same,Kd,[14],15 µM
same,Kd,[15],1.3 µM
same,Kd,[16],22.8 µM
same,Kd,[17],10.1 µM
same,Kd,[18],6.5 µM
same,Kd,[19],23.4 µM
same,Kd,[20],5 µM
same,Kd,[21],2.4 µM
same,Kd,[22],7.1 µM
same,Kd,[23],9.5 µM
same,Kd,[24],13 µM
same,Kd,[25],6.7 µM
same,Kd,[26],13 µM
same,Kd,[27],1.2 µM
same,Kd,[28],6.1 µM
same,Kd,[29],3.3 µM
same,Kd,[30],16 µM
same,Kd,[31],1.7 µM
same,Kd,[32],3.3 µM
same,Kd,[33],4.4 µM
same,Kd,[34],30 µM
same,Kd,[35],6.3 µM
same,Kd,[36],16.2 µM
same,Kd,[37],24.5 µM
same,Kd,[38],5.5 µM
same,Kd,[39],2.8 µM
same,Kd,[40],1.8 µM
B4,Kd,[41],2.8 µM
same,koff,[41],0.46 s⁻¹
B5,Kd,[5],44 µM
same,Kd,[6],19 µM
same,Kd,[7],23 µM
same,Kd,[8],23 µM
same,Kd,[9],37 µM
same,Kd,[10],3.7 µM
same,Kd,[12],53 µM
same,Kd,[13],22 µM
{FAM″}-KESALRKQELY[S5]KFD[S5]LLRDS-NH2 (staple 12-16) [SP5E],Kd,[1],146 µM
same,Kd,[2],234 µM
"{FAM}-FKESALRKQ[pS]LYLKFDPLLRDS [FAM-pTACC3 CID peptide (aa 549–570), phosphorylated at S558]",Kd,[3],23 µM
same,Kd,[42],22 µM
same,koff,[4],1.4 s⁻¹
{FAM}-KESALRKQDLYLKFDPLLR [WT TACC3 S558D],Kd,[43],339 µM
{FAM″}-KESALRK[S5]ELL[S5]EADPAFRDS-NH2 (staple 8-12) [negative control SP TACC3 (F563A & L566A)],Kd,[1],280 µM
